Assay results taken from paper PMC11920795.

Target: Pol epsilon WT (holoenzyme) (Saccharomyces cerevisiae, UniProt P21951;P24482;P27344;Q04603 1-2222;1-689;1-201;1-196)
Assay: EMSA

Sequence of Pol epsilon WT (holoenzyme) (P21951 whole entry, chain 1 of 4): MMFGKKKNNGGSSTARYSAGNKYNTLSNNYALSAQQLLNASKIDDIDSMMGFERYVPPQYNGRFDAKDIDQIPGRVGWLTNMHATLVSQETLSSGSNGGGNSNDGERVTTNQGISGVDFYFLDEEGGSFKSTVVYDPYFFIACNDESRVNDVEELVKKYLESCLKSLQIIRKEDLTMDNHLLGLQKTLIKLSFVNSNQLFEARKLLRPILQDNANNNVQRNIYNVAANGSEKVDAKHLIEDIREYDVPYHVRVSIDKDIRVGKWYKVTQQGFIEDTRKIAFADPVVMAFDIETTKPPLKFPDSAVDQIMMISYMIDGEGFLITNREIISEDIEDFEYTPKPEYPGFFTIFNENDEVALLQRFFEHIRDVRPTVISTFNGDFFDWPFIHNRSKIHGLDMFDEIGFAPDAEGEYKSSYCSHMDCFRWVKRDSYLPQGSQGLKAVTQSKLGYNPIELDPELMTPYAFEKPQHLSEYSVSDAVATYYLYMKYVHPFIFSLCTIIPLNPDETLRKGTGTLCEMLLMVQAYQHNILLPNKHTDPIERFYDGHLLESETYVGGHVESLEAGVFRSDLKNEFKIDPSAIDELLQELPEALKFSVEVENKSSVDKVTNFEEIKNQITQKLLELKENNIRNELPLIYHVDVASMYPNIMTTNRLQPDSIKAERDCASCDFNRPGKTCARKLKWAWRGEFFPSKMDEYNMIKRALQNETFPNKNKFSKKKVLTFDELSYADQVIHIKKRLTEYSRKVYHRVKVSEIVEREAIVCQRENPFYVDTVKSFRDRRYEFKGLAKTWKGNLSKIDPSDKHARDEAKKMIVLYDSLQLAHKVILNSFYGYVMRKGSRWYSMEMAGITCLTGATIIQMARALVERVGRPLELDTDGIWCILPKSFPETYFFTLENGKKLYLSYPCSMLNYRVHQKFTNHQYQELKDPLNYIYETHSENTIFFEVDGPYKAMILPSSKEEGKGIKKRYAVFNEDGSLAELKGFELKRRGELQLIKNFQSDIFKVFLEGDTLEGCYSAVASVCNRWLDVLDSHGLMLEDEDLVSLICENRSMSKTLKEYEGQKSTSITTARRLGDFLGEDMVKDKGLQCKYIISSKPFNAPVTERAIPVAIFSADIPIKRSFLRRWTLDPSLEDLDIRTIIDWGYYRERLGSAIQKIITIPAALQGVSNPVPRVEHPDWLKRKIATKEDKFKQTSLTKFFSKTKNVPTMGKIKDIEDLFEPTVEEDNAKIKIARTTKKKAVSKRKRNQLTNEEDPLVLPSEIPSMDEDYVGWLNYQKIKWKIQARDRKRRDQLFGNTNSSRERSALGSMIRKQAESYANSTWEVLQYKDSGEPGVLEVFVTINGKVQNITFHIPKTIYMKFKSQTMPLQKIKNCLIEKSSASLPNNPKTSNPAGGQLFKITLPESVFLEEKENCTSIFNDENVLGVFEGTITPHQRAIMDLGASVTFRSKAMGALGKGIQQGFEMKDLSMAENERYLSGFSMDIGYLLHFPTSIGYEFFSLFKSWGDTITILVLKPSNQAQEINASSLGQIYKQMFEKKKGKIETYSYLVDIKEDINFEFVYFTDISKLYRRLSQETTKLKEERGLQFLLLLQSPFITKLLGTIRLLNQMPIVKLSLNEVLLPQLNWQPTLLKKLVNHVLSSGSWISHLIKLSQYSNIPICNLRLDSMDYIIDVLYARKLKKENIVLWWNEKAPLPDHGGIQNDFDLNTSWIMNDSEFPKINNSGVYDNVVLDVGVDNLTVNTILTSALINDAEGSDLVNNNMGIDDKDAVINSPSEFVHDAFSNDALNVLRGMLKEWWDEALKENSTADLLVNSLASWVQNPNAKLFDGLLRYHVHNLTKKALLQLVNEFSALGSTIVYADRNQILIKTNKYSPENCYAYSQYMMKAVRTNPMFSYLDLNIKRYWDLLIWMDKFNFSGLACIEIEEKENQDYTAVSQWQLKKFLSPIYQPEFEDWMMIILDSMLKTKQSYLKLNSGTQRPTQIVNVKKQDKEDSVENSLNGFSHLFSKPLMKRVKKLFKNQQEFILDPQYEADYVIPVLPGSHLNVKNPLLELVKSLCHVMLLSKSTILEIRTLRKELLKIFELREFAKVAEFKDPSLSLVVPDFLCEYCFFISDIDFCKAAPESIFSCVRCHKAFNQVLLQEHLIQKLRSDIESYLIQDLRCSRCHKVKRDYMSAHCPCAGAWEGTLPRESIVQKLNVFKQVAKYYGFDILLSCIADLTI
Sequence of Pol epsilon WT (holoenzyme) (P24482 whole entry, chain 2 of 4): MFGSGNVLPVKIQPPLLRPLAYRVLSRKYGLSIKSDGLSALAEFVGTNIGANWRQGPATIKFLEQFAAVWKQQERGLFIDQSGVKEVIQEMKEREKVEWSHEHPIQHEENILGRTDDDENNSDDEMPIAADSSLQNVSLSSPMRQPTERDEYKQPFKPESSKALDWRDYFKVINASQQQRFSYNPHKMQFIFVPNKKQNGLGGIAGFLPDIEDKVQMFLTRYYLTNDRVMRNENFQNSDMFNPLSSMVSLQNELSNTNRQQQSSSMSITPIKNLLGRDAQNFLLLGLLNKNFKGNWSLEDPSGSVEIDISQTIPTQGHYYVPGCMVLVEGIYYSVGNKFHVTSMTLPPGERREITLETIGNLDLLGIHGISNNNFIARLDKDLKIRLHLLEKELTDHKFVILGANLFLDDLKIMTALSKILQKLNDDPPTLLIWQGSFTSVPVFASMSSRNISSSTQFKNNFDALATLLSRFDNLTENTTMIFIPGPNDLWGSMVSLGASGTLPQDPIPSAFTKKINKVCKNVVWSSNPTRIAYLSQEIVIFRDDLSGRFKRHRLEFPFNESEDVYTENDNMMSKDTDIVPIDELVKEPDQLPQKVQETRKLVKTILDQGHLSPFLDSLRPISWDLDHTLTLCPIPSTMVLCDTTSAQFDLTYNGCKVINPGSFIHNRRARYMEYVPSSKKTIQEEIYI
Sequence of Pol epsilon WT (holoenzyme) (P27344 whole entry, chain 3 of 4): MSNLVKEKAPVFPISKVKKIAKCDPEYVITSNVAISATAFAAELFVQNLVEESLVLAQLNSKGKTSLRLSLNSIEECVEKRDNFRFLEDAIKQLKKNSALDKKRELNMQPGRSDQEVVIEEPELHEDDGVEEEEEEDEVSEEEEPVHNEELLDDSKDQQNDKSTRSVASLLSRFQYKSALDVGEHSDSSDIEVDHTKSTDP
Sequence of Pol epsilon WT (holoenzyme) (Q04603 whole entry, chain 4 of 4): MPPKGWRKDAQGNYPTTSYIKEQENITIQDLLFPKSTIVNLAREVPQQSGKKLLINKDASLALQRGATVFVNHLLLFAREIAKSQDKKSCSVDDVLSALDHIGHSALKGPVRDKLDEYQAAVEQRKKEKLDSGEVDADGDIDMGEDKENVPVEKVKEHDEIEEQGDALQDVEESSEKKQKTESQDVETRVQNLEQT

B1: P50/T80-1 (mixed)
DNA 1: TGGAACTTTGTACGTCCAAAATTGAATGACTTGGCCAACTACACTAAGTT
DNA 2: GGATTACGAAACGAAGCACATTAGCCCTGGAACTTAGTGTAGTTGGCCAAGTCATTCAATTTTGGACGTACAAAGTTCCA
binding result: binds
